Measurements: publication PMC7083622

T1: Zscan4(ZnF) (Mus musculus, UniProt Q80VJ6 369-506)
T1 sequence: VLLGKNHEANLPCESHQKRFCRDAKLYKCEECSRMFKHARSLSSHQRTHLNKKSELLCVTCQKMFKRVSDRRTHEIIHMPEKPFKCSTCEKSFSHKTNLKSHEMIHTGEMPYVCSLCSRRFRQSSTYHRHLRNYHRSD


Legend:
Zscan4(ZnF) [1] = target: T1, Zscan4(ZnF); experiment: EMSA
Zscan4(ZnF) [2] = target: T1, Zscan4(ZnF); experiment: EMSA; remark: listed apart in the source

| Binder | binding result (Zscan4(ZnF) [1]) | Kd (Zscan4(ZnF) [2]) [µM] |
| --- | --- | --- |
| (GC)n oligo (dsDNA) DNA 1: TCGCGCGTCGCGCGTCGCGCGC DNA 2: GCGCGCGACGCGCGACGCGCGA | no binding |  |
| (TG)n oligo (dsDNA) DNA 1: TGTGTGCATCTGTGTGCATCAT DNA 2: ATGATGCACACAGATGCACACA |  | ~500 |
